Measured values from paper PMC12000434 (2025).

B1: FLAG-NDP52^WT [human] / HA-LC3C [human] (parent complex)
chain 1: MEETIKDPPTSAVLLDHCHFSQVIFNSVEKFYIPGGDVTCHYTFTQHFIPRRKDWIGIFRVGWKTTREYYTFMWVTLPIDLNNKSAKQQEVQFKAYYLPKDDEYYQFCYVDEDGVVRGASIPFQFRPENEEDILVVTTQGEVEEIEQHNKELCKENQELKDSCISLQKQNSDMQAELQKKQEELETLQSINKKLELKVKEQKDYWETELLQLKEQNQKMSSENEKMGIRVDQLQAQLSTQEKEMEKLVQGDQDKTEQLEQLKKENDHLFLSLTEQRKDQKKLEQTVEQMKQNETTAMKKQQELMDENFDLSKRLSENEIICNALQRQKERLEGENDLLKRENSRLLSYMGLDFNSLPYQVPTSDEGGARQNPGLAYGNPYSGIQESSSPSPLSIKKCPICKADDICDHTLEQQQMQPLCFNCPICDKIFPATEKQIFEDHVFCHSL
chain 2: MPPPQKIPSVRPFKQRKSLAIRQEEVAGIRAKFPNKIPVVVERYPRETFLPPLDKTKFLVPQELTMTQFLSIIRSRMVLRATEAFYLLVNNKSLVSMSATMAEIYRDYKDEDGFVYMTYASQETFG

Variants of: B1
Assay: co-immunoprecipitation, Western blot densitometry; lysates of SH-SY5Y cells; three independent experiments; blot labelled IP:HA(LC3C); parent: 100; read off a plot

First: chain 1 D203A, chain 1 Y204A, chain 1 W205A, chain 1 E206A
Second: chain 1 G140E, chain 1 D203A, chain 1 Y204A, chain 1 W205A, chain 1 E206A
The percent of parent of the first is lower: ~130 % of WT for the first, ~230 % of WT for the second.

With chain 1 G140E the percent of parent was ~240 % of WT.

Variants of: B1
Assay: co-immunoprecipitation (anti-HA beads), Western blot densitometry; lysates of SH-SY5Y cells; three independent experiments; parent: 100; read off a plot

First: chain 1 G140E
Second: chain 1 V136S, chain 1 G140E
The percent of parent of the first is higher: ~190 % of WT for the first, ~53 % of WT for the second.

For chain 1 V136S, the percent of parent was ~53 % of WT.
